Assay in all cases: cell-based or functional assay
The target in one test is human GLP-1 receptor (human, UniProt P43220 24-463).
A further test deals with T1, human GIP receptor (human, UniProt P48546 22-466).
T1 sequence (looked up): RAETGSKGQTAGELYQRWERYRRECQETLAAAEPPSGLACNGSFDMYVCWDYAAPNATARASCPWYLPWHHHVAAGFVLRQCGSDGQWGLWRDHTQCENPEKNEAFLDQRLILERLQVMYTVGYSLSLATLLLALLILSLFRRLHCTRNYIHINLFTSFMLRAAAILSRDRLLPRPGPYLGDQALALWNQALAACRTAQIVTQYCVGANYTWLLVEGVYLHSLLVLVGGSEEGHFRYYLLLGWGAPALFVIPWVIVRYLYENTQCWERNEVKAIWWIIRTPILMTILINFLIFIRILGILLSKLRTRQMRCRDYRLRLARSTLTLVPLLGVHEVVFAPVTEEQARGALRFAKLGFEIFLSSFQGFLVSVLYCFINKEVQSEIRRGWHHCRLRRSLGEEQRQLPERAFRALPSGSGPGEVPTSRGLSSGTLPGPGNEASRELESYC

For another test, the target named is human glucagon receptor (human, UniProt P47871 26-477).

*1 amine or outer side, *2 acyl side, *3 side chain or, on linkers, in order; H or OH if unused. Where no end group is shown, it is not given here. Side-chain parts run from the residue outwards. [ ]: non-standard residue; d: D form. The star is where a group is joined. Decanoyl(10-(4-HOOC-PhO)) = O=C(O)c1ccc(OCCCCCCCCCC(=O)*)cc1; αMePhe(2-F) = C[C@](N)(Cc1ccccc1F)C(=O)O; γGlu = O=C(O)[C@H](CCC(=O)[*:2])N[*:1]; C14 diacid = O=C(O)CCCCCCCCCCCCC(=O)*; αMeY = C[C@](N)(Cc1ccc(O)cc1)C(=O)O; αMeL = CC(C)C[C@](C)(N)C(=O)O; Orn = NCCC[C@H](N)C(=O)O; AEEA = NCCOCCOCC(=O)O; Aib = CC(C)(N)C(=O)O

The values that follow come from patent publication US20230265151A1, “GIP/GLP1 CO-AGONIST COMPOUNDS” (priority 2020, published 2023).

Sequence of human glucagon receptor (P47871 26-477): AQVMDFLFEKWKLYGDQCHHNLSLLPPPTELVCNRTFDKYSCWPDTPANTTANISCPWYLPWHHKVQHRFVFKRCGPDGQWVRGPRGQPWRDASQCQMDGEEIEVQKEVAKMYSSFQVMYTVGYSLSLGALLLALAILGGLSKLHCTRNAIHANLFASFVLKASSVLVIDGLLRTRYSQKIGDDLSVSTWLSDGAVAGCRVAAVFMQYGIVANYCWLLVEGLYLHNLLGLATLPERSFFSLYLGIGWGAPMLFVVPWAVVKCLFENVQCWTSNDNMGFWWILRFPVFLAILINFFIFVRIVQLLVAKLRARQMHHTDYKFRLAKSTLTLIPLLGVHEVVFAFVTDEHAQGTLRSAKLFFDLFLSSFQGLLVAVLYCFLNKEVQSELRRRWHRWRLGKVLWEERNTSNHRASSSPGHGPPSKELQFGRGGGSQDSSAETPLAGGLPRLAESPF

In the case of Y[Aib]EGT[αMePhe(2-F)]TSDV[Aib]I[αMeL]LD[Orn]QAQ[Aib][Orn]FIK([AEEA-AEEA-γGlu-Decanoyl(10-(4-HOOC-PhO))])[αMeY]LIK([AEEA-AEEA-γGlu-Decanoyl(10-(4-HOOC-PhO))])GGPSSGAPPPS-NH2 [Example 447], the figures for the “cAMP EC50 (1.0% HSA)” value with human GLP-1 receptor, with human GIP receptor and with human glucagon receptor were 7.85 nM, 1.46 nM and greater than 9950 nM, respectively. Besides, in the test with human GLP-1 receptor, the “cAMP Emax (1.0% HSA)” value is 98.4%.

B1: Example 390 (peptide)
peptide: Y[Aib]EGT[αMePhe(2-F)]TSDV[Aib]I[αMeL]LD[Orn]QAQ[Aib]EFIK([AEEA-AEEA-γGlu-C14 diacid])[αMeY]LIK([AEEA-AEEA-γGlu-C14 diacid])GGPSSGAPPPS-NH2
modifications: N-terminus assumed
SMILES: CC[C@H](C)[C@H](NC(=O)[C@H](CC(C)C)NC(=O)[C@](C)(Cc1ccc(O)cc1)NC(=O)[C@H](CCCCNC(=O)COCCOCCNC(=O)COCCOCCNC(=O)CC[C@H](NC(=O)CCCCCCCCCCCCC(=O)O)C(=O)O)NC(=O)[C@@H](NC(=O)[C@H](Cc1ccccc1)NC(=O)[C@H](CCC(=O)O)NC(=O)C(C)(C)NC(=O)[C@H](CCC(N)=O)NC(=O)[C@H](C)NC(=O)[C@H](CCC(N)=O)NC(=O)[C@H](CCCN)NC(=O)[C@H](CC(=O)O)NC(=O)[C@H](CC(C)C)NC(=O)[C@](C)(CC(C)C)NC(=O)[C@@H](NC(=O)C(C)(C)NC(=O)[C@@H](NC(=O)[C@H](CC(=O)O)NC(=O)[C@H](CO)NC(=O)[C@@H](NC(=O)[C@](C)(Cc1ccccc1F)NC(=O)[C@@H](NC(=O)CNC(=O)[C@H](CCC(=O)O)NC(=O)C(C)(C)NC(=O)[C@@H](N)Cc1ccc(O)cc1)[C@@H](C)O)[C@@H](C)O)C(C)C)[C@@H](C)CC)[C@@H](C)CC)C(=O)N[C@@H](CCCCNC(=O)COCCOCCNC(=O)COCCOCCNC(=O)CC[C@H](NC(=O)CCCCCCCCCCCCC(=O)O)C(=O)O)C(=O)NCC(=O)NCC(=O)N1CCC[C@H]1C(=O)N[C@@H](CO)C(=O)N[C@@H](CO)C(=O)NCC(=O)N[C@@H](C)C(=O)N1CCC[C@H]1C(=O)N1CCC[C@H]1C(=O)N1CCC[C@H]1C(=O)N[C@@H](CO)C(N)=O
Regarding B1, the “cAMP EC50 (1.0% HSA)” value with human GLP-1 receptor was 24.3 nM; with human GIP receptor it was 3.85 nM; in the test with human glucagon receptor, greater than 9950 nM. Moreover, the “cAMP Emax (1.0% HSA)” value in the test with human GLP-1 receptor is 94.6%; with human GIP receptor it was 89.3%.
Take Y[Aib]EGT[αMePhe(2-F)]TSDV[Aib]I[αMeL]LD[Orn]QAQ[Aib]EFIK([AEEA-AEEA-γGlu-Decanoyl(10-(4-HOOC-PhO))])[αMeY]LIK([AEEA-AEEA-γGlu-Decanoyl(10-(4-HOOC-PhO))])GGPSSGAPPPS-NH2 [Example 446]: the “cAMP EC50 (1.0% HSA)” value with human GLP-1 receptor is 33.5 nM; with human GIP receptor, 5.14 nM; with human glucagon receptor it was greater than 9950 nM. In addition, the “cAMP Emax (1.0% HSA)” value with human GLP-1 receptor was determined as 105%; with human GIP receptor, 97%.

B2: Example 365 (peptide)
peptide: YXEGTXTSDYXIXLDXIAQXEFIKXLIKGGPSSGAPPPS
modifications: Y-Aib-EGT-αMeF(2F)-TSDY-Aib-I-αMeL-LD-Orn-IAQ-Aib-EFIK((2-[2-(2-Amino-ethoxy)-ethoxy]-acetyl)-(γ-Glu)-(2-[2-(2-Amino-ethoxy)-ethoxy]-acetyl)-CO-(CH2)12-CO2H)-αMeY-LIK((2-[2-(2-Amino-ethoxy)-ethoxy]-acetyl)-(γ-Glu)-(2-[2-(2-Amino-ethoxy)-ethoxy]-acetyl)-CO-(CH2)12-CO2H)GGPSSGAPPPS-NH2
Turning to B2, the results for the “cAMP EC50 (1.0% HSA)” value with human GLP-1 receptor, with human GIP receptor and with human glucagon receptor were 22.3 nM, 1.93 nM and greater than 9950 nM, respectively. In the test with human GLP-1 receptor, the “cAMP Emax (1.0% HSA)” value was found to be 91%.

B3: Example 391 (peptide)
peptide: YXEGTXTSDXXIXLDXQAQXXFIKXLIKGGPSSGAPPPS
modifications: Y-Aib-EGT-αMeF(2F)-TSD-4Pal-Aib-I-αMeL-LD-Orn-QAQ-Aib-Orn-FIK((2-[2-(2-Amino-ethoxy)-ethoxy]-acetyl)2-(γ-Glu)-CO-(CH2)12-CO2H)-αMeY-LIK((2-[2-(2-Amino-ethoxy)-ethoxy]-acetyl)2-(γ-Glu)-CO-(CH2)12-CO2H)GGPSSGAPPPS-NH2
B3: the “cAMP EC50 (1.0% HSA)” value was 2.62 nM with human GLP-1 receptor, 0.266 nM in the test with human GIP receptor and greater than 9950 nM with human glucagon receptor.

B4: Example 444 (peptide)
peptide: YXEGTXTSDXXIXLDXQAQXXFIKXLIKGGPSSGAPPPS
modifications: Y-Aib-EGT-αMeF(2F)-TSD-4Pal-Aib-I-αMeL-LD-Orn-QAQ-Aib-4Pal-FIK((2-[2-(2-Amino-ethoxy)-ethoxy]-acetyl)2-(γ-Glu)-CO-(CH2)12-CO2H)-αMeY-LIK((2-[2-(2-Amino-ethoxy)-ethoxy]-acetyl)2-(γ-Glu)-CO-(CH2)12-CO2H)GGPSSGAPPPS-NH2
As to B4, the “cAMP EC50 (1.0% HSA)” value in the test with human GLP-1 receptor is 7.51 nM; with human GIP receptor it was 0.57 nM; with human glucagon receptor it was greater than 9950 nM.

B5: Example 401 (peptide)
peptide: YXEGTXTSDYXIXLDXQAQXXFIKXLIKGGPSSGAPPPS
modifications: Y-Aib-EGT-αMeF(2F)-TSDY-Aib-I-αMeL-LD-Orn-QAQ-Aib-Orn-FIK((2-[2-(2-Amino-ethoxy)-ethoxy]-acetyl)2-(γ-Glu)-CO-(CH2)12-CO2H)-αMeY-LIK((2-[2-(2-Amino-ethoxy)-ethoxy]-acetyl)2-(γ-Glu)-CO-(CH2)12-CO2H)GGPSSGAPPPS-NH2
As for B5, the “cAMP EC50 (1.0% HSA)” value with human GLP-1 receptor was 5.39 nM; with human GIP receptor, 0.434 nM; with human glucagon receptor, greater than 9950 nM. The figures for the “cAMP Emax (1.0% HSA)” value with human GLP-1 receptor and with human GIP receptor were 107% and 83%, respectively.

B6: Example 402 (peptide)
peptide: YXEGTXTSDYXIXLDXQAQXEFIKXLIKGGPSSGAPPPS
modifications: Y-Aib-EGT-αMeF(2F)-TSDY-Aib-I-αMeL-LD-Orn-QAQ-Aib-EFIK((2-[2-(2-Amino-ethoxy)-ethoxy]-acetyl)2-(γ-Glu)-(10-(4-carboxyphenoxy)decanoyl))-αMeY-LIK((2-[2-(2-Amino-ethoxy)-ethoxy]-acetyl)2-(γ-Glu)-(10-(4-carboxyphenoxy)decanoyl))GGPSSGAPPPS-NH2
Turning to B6, the “cAMP EC50 (1.0% HSA)” value is 13.5 nM with human GLP-1 receptor, 1.11 nM with human GIP receptor and greater than 9950 nM with human glucagon receptor. Moreover, the “cAMP Emax (1.0% HSA)” value with human GIP receptor was 84.5%.

B7: Example 441 (peptide)
peptide: YXEGTXTSDXXGXLDXQAQXXFIKXLIKGGPSSGAPPPS
modifications: Y-Aib-EGT-αMeF(2F)-TSD-4Pal-Aib-G-αMeL-LD-Orn-QAQ-Aib-Orn-FIK((2-[2-(2-Amino-ethoxy)-ethoxy]-acetyl)2-(γ-Glu)-CO-(CH2)12-CO2H)-αMeY-LIK((2-[2-(2-Amino-ethoxy)-ethoxy]-acetyl)2-(γ-Glu)-CO-(CH2)12-CO2H)GGPSSGAPPPS-NH2
Turning to B7, the “cAMP EC50 (1.0% HSA)” value with human GLP-1 receptor is 5.75 nM; with human GIP receptor, 1.38 nM; with human glucagon receptor, greater than 9950 nM. Besides, the “cAMP Emax (1.0% HSA)” value turned out to be 111% with human GLP-1 receptor and 83.8% in the test with human GIP receptor.

B8: Example 375 (peptide)
peptide: YXEGTXTSDYXIXLDXIAQXEFIKXLIKGGPSSGAPPPS
modifications: Y-Aib-EGT-αMeF(2F)-TSDY-Aib-I-αMeL-LD-Orn-IAQ-Aib-EFIK((2-[2-(2-Amino-ethoxy)-ethoxy]-acetyl)-(γ-Glu)-(10-(4-carboxyphenoxy)decanoyl))-αMeY-LIK((2-[2-(2-Amino-ethoxy)-ethoxy]-acetyl)-(γ-Glu)-(10-(4-carboxyphenoxy)decanoyl))GGPSSGAPPPS-NH2
Take B8: the “cAMP EC50 (1.0% HSA)” value is 56.1 nM in the test with human GLP-1 receptor, 4.68 nM with human GIP receptor and greater than 9950 nM in the test with human glucagon receptor.

B9: Example 443 (peptide)
peptide: YXEGTXTSDXXIXLDXQAQXXFIKXLIKGGPSSGAPPPS
modifications: Y-Aib-EGT-αMeF(2F)-TSD-4Pal-Aib-I-αMeL-LD-Orn-QAQ-Aib-Orn-FIK((2-[2-(2-Amino-ethoxy)-ethoxy]-acetyl)2-(γ-Glu)-CO-(CH2)14-CO2)-αMeY-LIK((2-[2-(2-Amino-ethoxy)-ethoxy]-acetyl)2-(γ-Glu)-CO-(CH2)14-CO2)GGPSSGAPPPS-NH2
Consider B9, for which the entries for the “cAMP EC50 (1.0% HSA)” value with human GLP-1 receptor, with human GIP receptor and with human glucagon receptor were 133 nM, 12.2 nM and greater than 9950 nM, respectively.

B10: Example 440 (peptide)
peptide: YXEGTXTSDXXIXLDXQAQXXFIKXLIKGGPSSGAPPPS
modifications: Y-Aib-EGT-αMeF(2F)-TSD-4Pal-Aib-I-αMeL-LD-Orn-QAQ-Aib-Orn-FIK((2-[2-(2-Amino-ethoxy)-ethoxy]-acetyl)2-(γ-Glu)-(10-(4-carboxyphenoxy)decanoyl))-αMeY-LIK((2-[2-(2-Amino-ethoxy)-ethoxy]-acetyl)2-(γ-Glu)-(10-(4-carboxyphenoxy)decanoyl))GGPSSGAPPPS-NH2
Turning to B10, the entries for the “cAMP EC50 (1.0% HSA)” value with human GLP-1 receptor, with human GIP receptor and in the test with human glucagon receptor were 2.74 nM, 0.209 nM and greater than 10100 nM, respectively.

B11: Example 442 (peptide)
peptide: YXEGTXTSDXXIXLDXQAQXXFIKXLIKGGPSSGAPPPS
modifications: Y-Aib-EGT-αMeF(2F)-TSD-4Pal-Aib-I-αMeL-LD-Orn-QAQ-Aib-Orn-FIK(2-[2-(2-Amino-ethoxy)-ethoxy]-acetyl)2-(γ-Glu)-(11-(4-carboxyphenoxy)undecanoyl)-αMeY-LIK((2-[2-(2-Amino-ethoxy)-ethoxy]-acetyl)2-(γ-Glu)-(11-(4-carboxyphenoxy)undecanoyl)GGPSSGAPPPS-NH2)
On to B11, for which the “cAMP EC50 (1.0% HSA)” value with human GLP-1 receptor was 7.63 nM; in the test with human GIP receptor, 0.687 nM; in the test with human glucagon receptor, greater than 9950 nM.

B12: Example 412 (peptide)
peptide: YXEGTXTSDYXIXLDXQAQXEFIKXLIKGGPSSGAPPPS
modifications: Y-Aib-EGT-αMeF(2F)-TSDY-Aib-I-αMeL-LD-Orn-QAQ-Aib-EFIK((2-[2-(2-Amino-ethoxy)-ethoxy]-acetyl)2-(γ-Glu)-CO-(CH2)12-CO2H)-αMeY-LIK((2-[2-(2-Amino-ethoxy)-ethoxy]-acetyl)2-(γ-Glu)-CO-(CH2)12-CO2H)GGPSSGAPPPS-NH2
As for B12, the “cAMP EC50 (1.0% HSA)” value is 18.3 nM in the test with human GLP-1 receptor, 1.57 nM with human GIP receptor and greater than 9950 nM with human glucagon receptor. Further, in the test with human GIP receptor, the “cAMP Emax (1.0% HSA)” value was 87.5%.
